The text below walks through data of paper PMC11844729 (Science Advances, 2025).

The assay deals with T1, mN2G^SR (mini-nesprin-2G lacking the transmembrane KASH domain, with C-terminal sfGFP-6xHis) (mouse, UniProt Q6ZWQ0-1).
T1 chain: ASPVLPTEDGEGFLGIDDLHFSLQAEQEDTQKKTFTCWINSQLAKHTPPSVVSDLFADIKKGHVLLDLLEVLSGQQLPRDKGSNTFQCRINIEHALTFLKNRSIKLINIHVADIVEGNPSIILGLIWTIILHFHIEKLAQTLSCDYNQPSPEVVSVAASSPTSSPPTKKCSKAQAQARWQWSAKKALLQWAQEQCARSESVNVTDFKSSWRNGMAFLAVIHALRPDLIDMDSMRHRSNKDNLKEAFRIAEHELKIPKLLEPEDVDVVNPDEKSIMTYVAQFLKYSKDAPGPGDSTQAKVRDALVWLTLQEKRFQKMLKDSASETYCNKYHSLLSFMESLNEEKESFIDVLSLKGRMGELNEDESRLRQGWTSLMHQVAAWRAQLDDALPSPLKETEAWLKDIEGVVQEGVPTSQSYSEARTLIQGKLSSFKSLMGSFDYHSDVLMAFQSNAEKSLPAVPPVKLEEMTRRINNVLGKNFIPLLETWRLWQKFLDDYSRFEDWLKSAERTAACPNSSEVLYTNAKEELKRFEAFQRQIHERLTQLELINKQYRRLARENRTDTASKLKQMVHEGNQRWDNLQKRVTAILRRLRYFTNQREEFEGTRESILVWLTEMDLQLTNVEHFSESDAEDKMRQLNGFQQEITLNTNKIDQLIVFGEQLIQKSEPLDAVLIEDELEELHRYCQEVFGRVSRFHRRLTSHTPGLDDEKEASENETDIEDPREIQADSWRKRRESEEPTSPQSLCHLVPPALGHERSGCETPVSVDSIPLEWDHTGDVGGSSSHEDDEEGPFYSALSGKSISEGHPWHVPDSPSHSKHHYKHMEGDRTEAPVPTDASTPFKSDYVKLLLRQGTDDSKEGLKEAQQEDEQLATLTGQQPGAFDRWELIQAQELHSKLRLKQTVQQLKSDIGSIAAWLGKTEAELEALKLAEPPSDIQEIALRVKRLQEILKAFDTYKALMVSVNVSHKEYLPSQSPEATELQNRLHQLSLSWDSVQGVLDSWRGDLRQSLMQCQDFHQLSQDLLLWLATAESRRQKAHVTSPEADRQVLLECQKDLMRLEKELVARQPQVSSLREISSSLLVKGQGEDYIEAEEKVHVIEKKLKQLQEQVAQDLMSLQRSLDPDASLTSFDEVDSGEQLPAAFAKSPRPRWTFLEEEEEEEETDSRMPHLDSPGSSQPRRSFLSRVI
The assay can be described thus: TIRF microscopy.

B1: kinesin heterotetramer composed of the KIF5B KHC and KLC2 (K5B2) (complex)
chain 1: MADLAECNIKVMCRFRPLNESEVNRGDKYIAKFQGEDTVVIASKPYAFDRVFQSSTSQEQVYNDCAKKIVKDVLEGYNGTIFAYGQTSSGKTHTMEGKLHDPEGMGIIPRIVQDIFNYIYSMDENLEFHIKVSYFEIYLDKIRDLLDVSKTNLSVHEDKNRVPYVKGCTERFVCSPDEVMDTIDEGKSNRHVAVTNMNEHSSRSHSIFLINVKQENTQTEQKLSGKLYLVDLAGSEKVSKTGAEGAVLDEAKNINKSLSALGNVISALAEGSTYVPYRDSKMTRILQDSLGGNCRTTIVICCSPSSYNESETKSTLLFGQRAKTIKNTVCVNVELTAEQWKKKYEKEKEKNKILRNTIQWLENELNRWRNGETVPIDEQFDKEKANLEAFTVDKDITLTNDKPATAIGVIGNFTDAERRKCEEEIAKLYKQLDDKDEEINQQSQLVEKLKTQMLDQEELLASTRRDQDNMQAELNRLQAENDASKEEVKEVLQALEELAVNYDQKSQEVEDKTKEYELLSDELNQKSATLASIDAELQKLKEMTNHQKKRAAEMMASLLKDLAEIGIAVGNNDVKQPEGTGMIDEEFTVARLYISKMKSEVKTMVKRCKQLESTQTESNKKMEENEKELAACQLRISQHEAKIKSLTEYLQNVEQKKRQLEESVDALSEELVQLRAQEKVHEMEKEHLNKVQTANEVKQAVEQQIQSHRETHQKQISSLRDEVEAKAKLITDLQDQNQKMMLEQERLRVEHEKLKATDQEKSRKLHELTVMQDRREQARQDLKGLEETVAKELQTLHNLRKLFVQDLATRVKKSAEIDSDDTGGSAAQKQKISFLENNLEQLTKVHKQLVRDNADLRCELPKLEKRLRATAERVKALESALKEAKENASRDRKRYQQEVDRIKEAVRSKNMARRGHSAQIAKPIRPGQHPAASPTHPSAIRGGGAFVQNSQPVAVRGGGGKQV
chain 2: MAMMVFPREEKLSQDEIVLGTKAVIQGLETLRGEHRALLAPLVAPEAGEAEPGSQERCILLRRSLEAIELGLGEAQVILALSSHLGAVESEKQKLRAQVRRLVQENQWLREELAGTQQKLQRSEQAVAQLEEEKQHLLFMSQIRKLDEDASPNEEKGDVPKDTLDDLFPNEDEQSPAPSPGGGDVSGQHGGYEIPARLRTLHNLVIQYASQGRYEVAVPLCKQALEDLEKTSGHDHPDVATMLNILALVYRDQNKYKEAAHLLNDALAIREKTLGKDHPAVAATLNNLAVLYGKRGKYKEAEPLCKRALEIREKVLGKFHPDVAKQLSNLALLCQNQGKAEEVEYYYRRALEIYATRLGPDDPNVAKTKNNLASCYLKQGKYQDAETLYKEILTRAHEKEFGSVNGDNKPIWMHAEEREESKDKRRDSAPYGEYGSWYKACKVDSPTVNTTLRSLGALYRRQGKLEAAHTLEDCASRNRKQGLDPASQTKVVELLKDGSGRRGDRRSSRDMAGGAGPRSESDLEDVGPTAEWNGDGSGSLRRSGSFGKLRDALRRSSEMLVKKLQGGTPQEPPNPRMKRASSLNFLNKSVEEPTQPGGTGLSDSRTLSSSSMDLSRRSSLVG
As to B1, the “fold recruitment to F-actin against mN2G^CH” value was over 115 fold.
